This note sets out measurements from paper PMC2665219 (Nucleic Acids Research, 2009).

What all share (experiment): EMSA
Data set [1] deals with T1, EbfC (Borrelia burgdorferi, UniProt O51418 1-99).
T1 sequence: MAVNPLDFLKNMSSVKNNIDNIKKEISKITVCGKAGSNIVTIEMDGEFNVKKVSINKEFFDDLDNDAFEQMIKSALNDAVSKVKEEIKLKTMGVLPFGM

In data set [2] the target is T2, EbfC K23A (Borrelia burgdorferi, UniProt O51418 1-99, K23A).
T2 sequence: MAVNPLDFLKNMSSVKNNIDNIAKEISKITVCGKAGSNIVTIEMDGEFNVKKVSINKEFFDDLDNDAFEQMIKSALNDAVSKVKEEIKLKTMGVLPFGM

In data set [3] the target is T3, EbfC K82A (Borrelia burgdorferi, UniProt O51418 1-99, K82A).
T3 sequence: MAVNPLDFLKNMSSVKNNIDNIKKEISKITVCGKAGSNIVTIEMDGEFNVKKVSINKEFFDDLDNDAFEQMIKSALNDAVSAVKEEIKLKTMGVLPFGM

The target in data set [4] is T4, EbfC K88A (Borrelia burgdorferi, UniProt O51418 1-99, K88A).
T4 sequence: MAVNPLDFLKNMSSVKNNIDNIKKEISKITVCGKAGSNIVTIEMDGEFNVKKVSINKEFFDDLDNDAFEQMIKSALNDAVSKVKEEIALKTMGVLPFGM

The target in data set [5] is T5, EbfC D20A (Borrelia burgdorferi, UniProt O51418 1-99, D20A).
T5 sequence: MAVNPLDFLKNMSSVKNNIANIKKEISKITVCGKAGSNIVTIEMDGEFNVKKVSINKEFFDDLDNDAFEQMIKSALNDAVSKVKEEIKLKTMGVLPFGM

In data set [6] the target is T6, EbfC K84A (Borrelia burgdorferi, UniProt O51418 1-99, K84A).
T6 sequence: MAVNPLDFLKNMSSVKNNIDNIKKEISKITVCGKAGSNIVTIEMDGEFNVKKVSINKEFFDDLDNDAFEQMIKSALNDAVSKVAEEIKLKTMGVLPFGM

Data set [7] addresses T7, EbfC K16A (Borrelia burgdorferi, UniProt O51418 1-99, K16A).
T7 sequence: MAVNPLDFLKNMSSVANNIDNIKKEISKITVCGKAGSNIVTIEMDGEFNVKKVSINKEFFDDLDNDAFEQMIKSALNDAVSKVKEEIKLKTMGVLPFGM

For data set [8], the target named is T8, EbfC N77A (Borrelia burgdorferi, UniProt O51418 1-99, N77A).
T8 sequence: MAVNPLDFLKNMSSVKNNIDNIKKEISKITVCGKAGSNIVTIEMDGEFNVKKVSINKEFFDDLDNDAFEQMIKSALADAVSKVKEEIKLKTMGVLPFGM

The target of data set [9] is T9, EbfC E85A (Borrelia burgdorferi, UniProt O51418 1-99, E85A).
T9 sequence: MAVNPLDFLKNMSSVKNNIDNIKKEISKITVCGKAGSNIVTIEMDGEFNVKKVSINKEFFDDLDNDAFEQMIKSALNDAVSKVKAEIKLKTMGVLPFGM

Data set [10] addresses T10, EbfC D78A (Borrelia burgdorferi, UniProt O51418 1-99, D78A).
T10 sequence: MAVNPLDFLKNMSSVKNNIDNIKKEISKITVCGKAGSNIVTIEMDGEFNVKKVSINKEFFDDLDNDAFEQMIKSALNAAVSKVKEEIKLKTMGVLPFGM

The target of data set [11] is T1, EbfC. This is another data set of the same source.

Like-named read-outs stand apart in the source and are kept apart here.

B1: b-WT (dsDNA)
DNA 1: TTGTAATGAGTAGTGCATTTGCAATGGAGAGATTTTGGGGAGTTGTTTAAAATTACATTTGCGTTTTGTTAAAATGTAACAGCTGAATGTAACAAAATTATATATTTAAATCTTTGAAATATTGC
DNA 2: GCAATATTTCAAAGATTTAAATATATAATTTTGTTACATTCAGCTGTTACATTTTAACAAAACGCAAATGTAATTTTAAACAACTCCCCAAAATCTCTCCATTGCAAATGCACTACTCATTACAA
Turning to B1, the Kd in data set [1] is 388 ± 108 nM; in data set [11], 313 nM. Moreover, the binding result in data set [2], in [3], in data set [4], in data set [5], in data set [6] and in [7] was “no binding” in each case. Further, the binding result in [8], in [9] and in [10] was “no binding” throughout.
